Reference: article PMC4954732 (2016)

Biological target: A. fumigatus CCAAT binding complex (CBC) consisting of HapB(230-299), HapC(40-137) and HapE(47-164) (A. fumigatus)
Test: SPR

B1: HapX(24-158) (domain or fragment)
chain: SPSPGPGTPGSITSKEWVIPPRPKPGRKPATDTPPTKRKAQNRAAQRAFRERRAARVNELEEQIKKIEDEHEIHIAAFKEQITNLSREVEQCRSEMTWWRDRCHALEKEVSVERSAKEAIVKEFRSSLSDREAVR
Binder B1 has a Kd of 16.2 nM.
